What all share (test): SPR
(Surface plasmon resonance follows binding to a sensor surface in real time, without labels.)

Assay [1] concerns the target T1, human NL3(–A)_(ECTO) (Gln38-Asp636), immobilised for SPR (human, UniProt Q9NZ94-1 38-636, –A: nothing between Asp152 and Asp193, biotin on the Avitag (in vivo biotinylation by BirA)).
Assay [2] concerns the target T2, human NL4_(ECTO) (NL4(X); Gln42-Glu602), immobilised for SPR (human, UniProt Q8N0W4-1 42-602, biotin on the Avitag (in vivo biotinylation by BirA)).
T2 chain: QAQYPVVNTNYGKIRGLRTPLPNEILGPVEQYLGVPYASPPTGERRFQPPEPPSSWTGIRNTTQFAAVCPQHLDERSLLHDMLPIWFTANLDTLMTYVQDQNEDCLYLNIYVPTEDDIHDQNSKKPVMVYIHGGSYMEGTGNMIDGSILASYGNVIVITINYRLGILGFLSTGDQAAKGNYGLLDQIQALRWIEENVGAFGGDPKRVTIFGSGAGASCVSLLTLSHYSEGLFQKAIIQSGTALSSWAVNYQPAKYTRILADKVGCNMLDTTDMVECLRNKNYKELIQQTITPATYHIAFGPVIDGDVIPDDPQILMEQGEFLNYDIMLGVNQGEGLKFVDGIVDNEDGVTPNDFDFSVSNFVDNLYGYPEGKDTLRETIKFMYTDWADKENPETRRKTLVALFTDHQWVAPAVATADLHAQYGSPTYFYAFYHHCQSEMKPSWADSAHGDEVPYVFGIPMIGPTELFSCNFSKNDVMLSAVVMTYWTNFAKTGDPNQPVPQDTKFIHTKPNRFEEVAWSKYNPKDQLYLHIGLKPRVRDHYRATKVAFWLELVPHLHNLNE

The target of assay [3] is human NL2(–A)_(ECTO) (Glu38-His612), immobilised for SPR (human, UniProt Q8NFZ4 38-612, –A: GPLTKKRDEATLNPPDT between Asp152 and Asp170 absent, biotin on the Avitag (in vivo biotinylation by BirA)).
human NL2(–A)_(ECTO) (Glu38-His612), immobilised for SPR, sequence (Q8NFZ4 other isoform, or with tags, fused parts or gaps with the stated changes): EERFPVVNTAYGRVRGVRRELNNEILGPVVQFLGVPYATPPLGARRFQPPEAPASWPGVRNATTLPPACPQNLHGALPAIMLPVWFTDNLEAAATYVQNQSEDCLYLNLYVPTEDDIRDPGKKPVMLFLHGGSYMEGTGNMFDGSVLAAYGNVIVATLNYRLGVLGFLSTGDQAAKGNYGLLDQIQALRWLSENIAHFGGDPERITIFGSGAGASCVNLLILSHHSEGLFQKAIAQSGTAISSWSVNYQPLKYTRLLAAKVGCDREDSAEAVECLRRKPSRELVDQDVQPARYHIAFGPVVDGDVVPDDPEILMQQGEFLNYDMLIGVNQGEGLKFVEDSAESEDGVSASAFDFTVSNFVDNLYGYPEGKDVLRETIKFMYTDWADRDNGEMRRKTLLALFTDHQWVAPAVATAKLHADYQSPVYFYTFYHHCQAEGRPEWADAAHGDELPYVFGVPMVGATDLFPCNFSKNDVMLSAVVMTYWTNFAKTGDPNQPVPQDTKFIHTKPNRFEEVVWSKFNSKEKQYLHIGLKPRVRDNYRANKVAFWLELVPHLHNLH
Assay [4] has as its target T3, human NL1(–A+B Asn300Gln)_(ECTO), immobilised for SPR (human, biotin on the Avitag (in vivo biotinylation by BirA)).
T3 chain: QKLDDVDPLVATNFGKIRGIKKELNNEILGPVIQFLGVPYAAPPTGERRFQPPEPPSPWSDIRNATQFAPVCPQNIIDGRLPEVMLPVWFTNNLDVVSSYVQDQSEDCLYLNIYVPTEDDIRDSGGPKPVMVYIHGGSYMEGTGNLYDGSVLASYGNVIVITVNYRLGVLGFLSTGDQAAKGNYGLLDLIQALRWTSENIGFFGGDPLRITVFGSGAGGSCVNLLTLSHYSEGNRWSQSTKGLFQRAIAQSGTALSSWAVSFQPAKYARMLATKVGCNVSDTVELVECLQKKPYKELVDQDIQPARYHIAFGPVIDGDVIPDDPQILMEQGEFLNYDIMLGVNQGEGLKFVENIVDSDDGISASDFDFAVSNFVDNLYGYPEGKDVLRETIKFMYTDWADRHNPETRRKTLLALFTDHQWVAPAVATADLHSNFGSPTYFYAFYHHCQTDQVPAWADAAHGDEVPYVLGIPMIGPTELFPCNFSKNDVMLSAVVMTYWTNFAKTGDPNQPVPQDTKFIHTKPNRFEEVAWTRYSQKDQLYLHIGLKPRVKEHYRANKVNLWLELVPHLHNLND

The target of assay [5] is T4, human NL1(–A+B)_(ECTO), immobilised for SPR (human, biotin on the Avitag (in vivo biotinylation by BirA); N-linked glycan at Asn300).
T4 chain: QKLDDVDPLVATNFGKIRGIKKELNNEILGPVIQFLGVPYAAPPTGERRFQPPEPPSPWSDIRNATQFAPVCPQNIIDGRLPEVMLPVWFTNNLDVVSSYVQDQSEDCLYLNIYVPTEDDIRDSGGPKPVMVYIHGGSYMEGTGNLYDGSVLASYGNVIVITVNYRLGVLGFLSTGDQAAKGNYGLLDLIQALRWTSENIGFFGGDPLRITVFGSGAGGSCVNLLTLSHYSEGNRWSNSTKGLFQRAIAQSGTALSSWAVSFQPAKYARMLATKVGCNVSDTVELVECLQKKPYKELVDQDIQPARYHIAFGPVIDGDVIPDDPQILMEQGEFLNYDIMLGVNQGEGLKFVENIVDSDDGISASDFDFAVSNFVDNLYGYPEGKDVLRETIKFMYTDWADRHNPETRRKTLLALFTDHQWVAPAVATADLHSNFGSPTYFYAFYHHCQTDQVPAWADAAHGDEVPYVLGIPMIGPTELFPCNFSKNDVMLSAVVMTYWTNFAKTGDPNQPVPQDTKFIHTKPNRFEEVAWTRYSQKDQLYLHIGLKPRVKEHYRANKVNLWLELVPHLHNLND

For assay [6], the target named is T1, human NL3(–A)_(ECTO) (Gln38-Asp636), …. The source holds these as a separate data set.

Read-outs that look alike come from different tables or passages of the source.

T1 sequence (Q9NZ94 other isoform, or with tags, fused parts or gaps –A: nothing between Asp152 and Asp193): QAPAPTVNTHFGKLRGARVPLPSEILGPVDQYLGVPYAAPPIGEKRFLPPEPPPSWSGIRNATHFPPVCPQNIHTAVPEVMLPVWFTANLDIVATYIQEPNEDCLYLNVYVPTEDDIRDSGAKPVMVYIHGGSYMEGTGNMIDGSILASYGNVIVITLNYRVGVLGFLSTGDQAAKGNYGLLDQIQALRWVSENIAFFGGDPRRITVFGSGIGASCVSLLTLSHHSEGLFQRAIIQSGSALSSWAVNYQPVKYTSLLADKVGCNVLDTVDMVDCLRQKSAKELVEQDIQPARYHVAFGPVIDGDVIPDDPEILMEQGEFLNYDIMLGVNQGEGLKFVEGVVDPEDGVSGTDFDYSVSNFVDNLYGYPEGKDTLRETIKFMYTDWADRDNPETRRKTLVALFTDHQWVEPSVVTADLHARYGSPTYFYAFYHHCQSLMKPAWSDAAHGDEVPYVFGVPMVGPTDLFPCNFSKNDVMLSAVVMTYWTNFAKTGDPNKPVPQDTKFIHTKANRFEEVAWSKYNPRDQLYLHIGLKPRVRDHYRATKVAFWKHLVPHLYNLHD

B1: human β-neurexin-1 LNS6 domain lacking SS4 (β-NRX1_(LNS6)(–4); His85-Val265) (domain or fragment)
chain: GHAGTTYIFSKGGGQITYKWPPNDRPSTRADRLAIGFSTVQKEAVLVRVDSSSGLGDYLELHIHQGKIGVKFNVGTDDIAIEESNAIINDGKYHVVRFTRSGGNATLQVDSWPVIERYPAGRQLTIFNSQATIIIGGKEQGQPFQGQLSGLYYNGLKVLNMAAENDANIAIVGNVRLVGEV
The term Kd denotes the free concentration of one partner at which half of the binding sites on the other are occupied at equilibrium, for simple one-to-one binding. Low readings indicate a tighter complex, high ones a looser complex. B1: the dissociation constant Kd in assay [1] was determined as 9.48 µM; in assay [2] it was 2.49 µM; in assay [3], 0.699 µM; in assay [4], 1.09 µM; in assay [5], 1.16 µM.

B2: human β-neurexin-1 LNS6 domain with SS4 (β-NRX1_(LNS6)(+4)) (domain or fragment)
chain: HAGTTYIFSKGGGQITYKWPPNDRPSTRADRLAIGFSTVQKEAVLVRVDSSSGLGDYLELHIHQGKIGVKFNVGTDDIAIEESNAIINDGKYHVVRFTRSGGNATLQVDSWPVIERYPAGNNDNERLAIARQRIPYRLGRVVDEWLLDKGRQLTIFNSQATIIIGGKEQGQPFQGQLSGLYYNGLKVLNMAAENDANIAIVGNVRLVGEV
B2: the Kd in assay [1] is 36.8 µM; in assay [2], 9.66 µM; in assay [3], 4 µM; in assay [6], 22.1 µM; in assay [4], 4.4 µM; in assay [5] it was 4.75 µM.

B3: human MDGA1 extracellular domain (MDGA1_(ECTO); Gln19-Lys925) (domain or fragment)
chain: QGVYAPAQAQIVHAGQACVVKEDNISERVYTIREGDTLMLQCLVTGHPRPQVRWTKTAGSASDKFQETSVFNETLRIERIARTQGGRYYCKAENGVGVPAIKSIRVDVQYLDEPMLTVHQTVSDVRGNFYQEKTVFLRCTVNSNPPARFIWKRGSDTLSHSQDNGVDIYEPLYTQGETKVLKLKNLRPQDYASYTCQVSVRNVCGIPDKAITFRLTNTTAPPALKLSVNETLVVNPGENVTVQCLLTGGDPLPQLQWSHGPGPLPLGALAQGGTLSIPSVQARDSGYYNCTATNNVGNPAKKTVNLLVRSMKNATFQITPDVIKESENIQLGQDLKLSCHVDAVPQEKVTYQWFKNGKPARMSKRLLVTRNDPELPAVTSSLELIDLHFSDYGTYLCMASFPGAPVPDLSVEVNISSETVPPTISVPKGRAVVTVREGSPAELQCEVRGKPRPPVLWSRVDKEAALLPSGLPLEETPDGKLRLERVSRDMSGTYRCQTARYNGFNVRPREAQVQLNVQFPPEVEPSSQDVRQALGRPVLLRCSLLRGSPQRIASAVWRFKGQLLPPPPVVPAAAEAPDHAELRLDAVTRDSSGSYECSVSNDVGSAACLFQVSAKAYSPEFYFDTPNPTRSHKLSKNYSYVLQWTQREPDAVDPVLNYRLSIRQLNQHNAVVKAIPVRRVEKGQLLEYILTDLRVPHSYEVRLTPYTTFGAGDMASRIIHYTEPINSPNLSDNTCHFEDEKICGYTQDLTDNFDWTRQNALTQNPKRSPNTGPPTDISGTPEGYYMFIETSRPRELGDRARLVSPLYNASAKFYCVSFFYHMYGKHIGSLNLLVRSRNKGALDTHAWSLSGNKGNVWQQAHVPISPSGPFQIIFEGVRGPGYLGDIAIDDVTLKKGECPRKQTDPNK
As for B3, the Kd was 17.1 µM in assay [1]; 14.7 µM in assay [2]; 14.6 µM in assay [6]; 7.22 µM in assay [4]; 13.2 µM in assay [5].

B4: human MDGA2 extracellular domain (MDGA2_(ECTO); Gln21-Lys927) (domain or fragment)
chain: QGVYAPPTVRIVHSGLACNIEEERYSERVYTIREGETLELTCLVTGHPRPQIRWTKTAGSASDRFQDSSVFNETLRITNIQRHQGGRYYCKAENGLGSPAIKSIRVDVYYLDDPVVTVHQSIGEAKEQFYYERTVFLRCVANSNPPVRYSWRRGQEVLLQGSDKGVEIYEPFFTQGETKILKLKNLRPQDYANYSCIASVRNVCNIPDKMVSFRLSNKTASPSIKLLVDDPIVVNPGEAITLVCVTTGGEPAPSLTWVRSFGTLPEKTVLNGGTLTIPAITSDDAGTYSCIANNNVGNPAKKSTNIIVRALKKGRFWITPDPYHKDDNIQIGREVKISCQVEAVPSEELTFSWFKNGRPLRSSERMVITQTDPDVSPGTTNLDIIDLKFTDFGTYTCVASLKGGGISDISIDVNISSSTVPPNLTVPQEKSPLVTREGDTIELQCQVTGKPKPIILWSRADKEVAMPDGSMQMESYDGTLRIVNVSREMSGMYRCQTSQYNGFNVKPREALVQLIVQYPPAVEPAFLEIRQGQDRSVTMSCRVLRAYPIRVLTYEWRLGNKLLRTGQFDSQEYTEYAVKSLSNENYGVYNCSIINEAGAGRCSFLVTGKAYAPEFYYDTYNPVWQNRHRVYSYSLQWTQMNPDAVDRIVAYRLGIRQAGQQRWWEQEIKINGNIQKGELITYNLTELIKPEAYEVRLTPLTKFGEGDSTIRVIKYSAPVNPHLREFHCGFEDGNICLFTQDDTDNFDWTKQSTATRNTKYTPNTGPNADRSGSKEGFYMYIETSRPRLEGEKARLLSPVFSIAPKNPYGPTNTAYCFSFFYHMYGQHIGVLNVYLRLKGQTTIENPLWSSSGNKGQRWNEAHVNIYPITSFQLIFEGIRGPGIEGDIAIDDVSIAEGECAKQDLATK
In the case of B4, the dissociation constant Kd came to 24.9 µM in assay [1]; 14.4 µM in assay [2]; 0.768 µM in assay [3]; 27.6 µM in assay [6]; 4.03 µM in assay [4]; 9.63 µM in assay [5].

(Values after publication PMC5563082 (2017).)
